Experimental findings from article PMC7439480, “Phosphorylation-Dependent Assembly of a 14-3-3 Mediated Signaling Complex during Red Blood Cell Invasion by Plasmodium falciparum Merozoites” (mBio, 2020) are described below.

This assay has as its target T1, recombinant glutathione S-transferase (GST)-tagged Pf14-3-3I protein (P. falciparum, UniProt C0H4V6 1-262).
T1 construct: 14-3-3 protein I, P. falciparum, PF3D7_0818200; also called Pf14-3-3I-GST; recombinant Pf14-3-3I; source: recombinant
T1 sequence: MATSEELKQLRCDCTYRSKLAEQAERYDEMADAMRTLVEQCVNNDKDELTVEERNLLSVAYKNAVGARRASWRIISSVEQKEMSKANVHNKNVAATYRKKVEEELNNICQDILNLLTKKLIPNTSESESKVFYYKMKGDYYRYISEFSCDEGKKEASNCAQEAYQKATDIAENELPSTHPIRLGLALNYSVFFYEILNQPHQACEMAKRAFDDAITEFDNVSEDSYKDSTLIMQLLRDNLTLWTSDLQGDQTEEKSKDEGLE
Nature of the assay: pull-down; peptides coupled to agarose beads (Pierce co-IP kit) incubated with GST-tagged Pf14-3-3I; eluates blotted with anti-Pf14-3-3I mouse sera; noncoated beads as control. Conditions: both partners purified.

Non-standard residues stand in square brackets, D forms with d. No end group written: not given here. pS = N[C@@H](COP(=O)(O)O)C(=O)O

B1: 14-3-3 binding peptide AA (ARSHpSYPA) (peptide)
peptide: ARSH[pS]YPA
notes: Coupled to agarose beads (Pierce co-IP kit) for the pull-down; also called phosphopeptide AA; source: synthetic peptide
B1: the binding result is “binds”.

B2: 14-3-3 binding peptide RA (RLYHpSLPA) (peptide)
peptide: RLYH[pS]LPA
notes: Coupled to agarose beads (Pierce co-IP kit) for the pull-down; also called phosphopeptide RA; source: synthetic peptide
Turning to B2, the binding result was “binds”.
